Test results taken from US20240392004A1.
Each block holds one substance with its values, some of them ahead of it.

What was measured:
Experiment in all cases: cell-based or functional assay
[1] = molecular target: T1, IFN-γ receptor (IFNGR1 and IFNGR2) (UniProt P15260)
T1 sequence (looked up) 1: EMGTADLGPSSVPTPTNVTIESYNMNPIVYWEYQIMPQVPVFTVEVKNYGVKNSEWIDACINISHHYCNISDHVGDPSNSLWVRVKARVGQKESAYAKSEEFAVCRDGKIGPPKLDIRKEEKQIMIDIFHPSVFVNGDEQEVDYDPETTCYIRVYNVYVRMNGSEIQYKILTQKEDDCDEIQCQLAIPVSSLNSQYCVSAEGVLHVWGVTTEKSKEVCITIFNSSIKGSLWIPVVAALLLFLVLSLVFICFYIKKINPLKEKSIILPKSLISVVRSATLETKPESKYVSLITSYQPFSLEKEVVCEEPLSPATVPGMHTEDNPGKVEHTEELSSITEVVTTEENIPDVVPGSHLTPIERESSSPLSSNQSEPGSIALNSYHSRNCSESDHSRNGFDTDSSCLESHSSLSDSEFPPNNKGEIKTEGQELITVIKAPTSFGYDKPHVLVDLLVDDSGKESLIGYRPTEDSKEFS
T1 sequence (looked up) 2: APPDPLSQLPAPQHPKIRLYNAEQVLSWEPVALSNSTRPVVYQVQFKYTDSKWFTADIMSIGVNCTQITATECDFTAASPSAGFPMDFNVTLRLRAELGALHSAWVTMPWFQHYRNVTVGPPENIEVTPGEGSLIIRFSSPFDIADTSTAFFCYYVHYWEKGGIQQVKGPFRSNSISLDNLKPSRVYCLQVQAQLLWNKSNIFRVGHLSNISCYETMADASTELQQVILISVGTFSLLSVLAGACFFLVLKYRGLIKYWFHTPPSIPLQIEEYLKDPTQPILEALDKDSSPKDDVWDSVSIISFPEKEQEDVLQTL

[2] = molecular target: IL-10 receptor (hIL-10Rα and hIL-10Rβ) (human) (UniProt Q13651)
IL-10 receptor (hIL-10Rα and hIL-10Rβ) (human), sequence (Q13651 22-578, chain 1 of 2): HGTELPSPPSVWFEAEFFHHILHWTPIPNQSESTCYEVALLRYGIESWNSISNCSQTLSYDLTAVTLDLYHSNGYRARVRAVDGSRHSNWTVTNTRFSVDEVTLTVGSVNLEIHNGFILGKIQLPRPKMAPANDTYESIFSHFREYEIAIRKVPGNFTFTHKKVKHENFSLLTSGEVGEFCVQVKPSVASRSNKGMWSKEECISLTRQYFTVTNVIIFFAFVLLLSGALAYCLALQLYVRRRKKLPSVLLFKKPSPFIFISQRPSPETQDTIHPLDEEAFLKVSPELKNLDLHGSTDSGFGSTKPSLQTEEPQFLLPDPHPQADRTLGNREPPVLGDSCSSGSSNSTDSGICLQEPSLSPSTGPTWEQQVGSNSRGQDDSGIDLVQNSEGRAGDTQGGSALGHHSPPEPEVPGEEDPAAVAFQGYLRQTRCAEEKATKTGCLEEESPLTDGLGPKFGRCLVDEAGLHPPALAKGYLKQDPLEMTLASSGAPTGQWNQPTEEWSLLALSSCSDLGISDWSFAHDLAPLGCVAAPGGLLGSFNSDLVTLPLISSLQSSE
IL-10 receptor (hIL-10Rα and hIL-10Rβ) (human), sequence (Q08334 20-325, chain 2 of 2, further chain): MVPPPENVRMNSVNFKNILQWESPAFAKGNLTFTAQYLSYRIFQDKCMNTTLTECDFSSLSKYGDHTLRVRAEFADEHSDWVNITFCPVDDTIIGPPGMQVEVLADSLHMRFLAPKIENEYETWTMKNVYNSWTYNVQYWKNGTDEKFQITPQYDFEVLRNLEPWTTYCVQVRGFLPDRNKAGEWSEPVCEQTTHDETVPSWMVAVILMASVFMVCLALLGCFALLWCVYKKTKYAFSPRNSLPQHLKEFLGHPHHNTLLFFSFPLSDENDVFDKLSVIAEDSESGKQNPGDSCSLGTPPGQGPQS

[3] = molecular target: human IL-12 receptor complex (IL-12Rβ1 and IL-12Rβ2) (human) (UniProt P42701)
human IL-12 receptor complex (IL-12Rβ1 and IL-12Rβ2) (human), sequence (Q99665 24-862, chain 2 of 2, other chains not shown): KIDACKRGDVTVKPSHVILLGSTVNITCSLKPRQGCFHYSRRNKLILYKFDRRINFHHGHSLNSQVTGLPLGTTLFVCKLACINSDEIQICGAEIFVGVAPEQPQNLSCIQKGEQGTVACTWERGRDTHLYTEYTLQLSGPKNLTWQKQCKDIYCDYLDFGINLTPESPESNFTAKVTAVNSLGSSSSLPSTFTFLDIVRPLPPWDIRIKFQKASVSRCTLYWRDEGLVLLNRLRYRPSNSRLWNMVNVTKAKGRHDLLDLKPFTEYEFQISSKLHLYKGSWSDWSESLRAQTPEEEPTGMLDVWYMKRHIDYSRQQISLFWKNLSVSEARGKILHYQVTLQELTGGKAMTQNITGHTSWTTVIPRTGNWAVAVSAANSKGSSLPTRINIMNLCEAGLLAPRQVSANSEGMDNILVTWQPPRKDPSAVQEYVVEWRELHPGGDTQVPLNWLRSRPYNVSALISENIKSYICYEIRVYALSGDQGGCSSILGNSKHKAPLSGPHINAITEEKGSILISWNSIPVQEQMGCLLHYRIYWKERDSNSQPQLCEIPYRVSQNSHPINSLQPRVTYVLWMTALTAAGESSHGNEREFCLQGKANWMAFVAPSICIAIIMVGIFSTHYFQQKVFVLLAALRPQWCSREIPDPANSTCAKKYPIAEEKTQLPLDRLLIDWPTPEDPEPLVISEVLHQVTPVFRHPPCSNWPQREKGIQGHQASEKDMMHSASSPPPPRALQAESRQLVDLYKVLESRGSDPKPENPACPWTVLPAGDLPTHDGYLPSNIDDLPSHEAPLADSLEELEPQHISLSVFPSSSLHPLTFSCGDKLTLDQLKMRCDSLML

[4] = molecular target: IL-23 receptor complex (IL-12Rβ1 and IL-23R) (UniProt P42701)
IL-23 receptor complex (IL-12Rβ1 and IL-23R), sequence (Q5VWK5 24-629 limits assumed, chain 2 of 2, other chains not shown): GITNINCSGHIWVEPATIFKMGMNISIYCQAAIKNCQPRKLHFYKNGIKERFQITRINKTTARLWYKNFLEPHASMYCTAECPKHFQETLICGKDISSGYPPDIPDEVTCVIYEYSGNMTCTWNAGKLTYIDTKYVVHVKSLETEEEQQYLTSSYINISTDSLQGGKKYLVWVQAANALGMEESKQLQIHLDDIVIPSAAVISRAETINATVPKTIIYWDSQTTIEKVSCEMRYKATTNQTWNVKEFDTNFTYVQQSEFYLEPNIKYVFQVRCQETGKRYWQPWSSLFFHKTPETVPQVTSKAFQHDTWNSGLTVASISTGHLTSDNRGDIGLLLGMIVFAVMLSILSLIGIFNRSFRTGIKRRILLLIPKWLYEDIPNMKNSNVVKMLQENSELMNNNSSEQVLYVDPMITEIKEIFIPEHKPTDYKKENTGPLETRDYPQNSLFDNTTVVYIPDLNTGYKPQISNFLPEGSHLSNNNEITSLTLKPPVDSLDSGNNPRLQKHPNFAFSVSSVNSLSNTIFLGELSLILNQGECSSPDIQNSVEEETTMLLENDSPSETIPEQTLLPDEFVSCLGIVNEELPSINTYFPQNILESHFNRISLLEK

recombinant human IFN-γ (free state), sequence (P01579 24-166 limits assumed): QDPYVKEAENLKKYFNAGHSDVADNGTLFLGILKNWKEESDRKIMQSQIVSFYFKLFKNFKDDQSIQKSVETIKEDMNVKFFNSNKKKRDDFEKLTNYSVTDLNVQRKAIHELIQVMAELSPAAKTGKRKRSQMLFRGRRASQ
recombinant human IL-12, sequence (P29459 23-219 limits assumed): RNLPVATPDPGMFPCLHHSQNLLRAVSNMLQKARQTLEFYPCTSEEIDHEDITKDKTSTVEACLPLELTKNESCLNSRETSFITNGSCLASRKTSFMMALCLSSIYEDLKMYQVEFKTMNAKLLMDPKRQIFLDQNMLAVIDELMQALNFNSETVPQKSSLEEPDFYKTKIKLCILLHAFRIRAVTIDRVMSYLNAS
recombinant human IL-12, sequence (P29460 23-328 limits assumed): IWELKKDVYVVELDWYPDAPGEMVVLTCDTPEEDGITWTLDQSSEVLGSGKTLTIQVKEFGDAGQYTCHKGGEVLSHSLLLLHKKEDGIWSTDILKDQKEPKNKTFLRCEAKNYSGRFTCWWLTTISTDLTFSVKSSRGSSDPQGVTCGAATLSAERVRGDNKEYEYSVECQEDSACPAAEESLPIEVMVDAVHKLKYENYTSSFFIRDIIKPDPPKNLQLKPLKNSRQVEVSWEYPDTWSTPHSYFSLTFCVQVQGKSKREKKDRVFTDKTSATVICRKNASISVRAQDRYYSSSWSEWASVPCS
recombinant human IL-23 (free state), sequence (Q9NPF7 20-189 limits assumed): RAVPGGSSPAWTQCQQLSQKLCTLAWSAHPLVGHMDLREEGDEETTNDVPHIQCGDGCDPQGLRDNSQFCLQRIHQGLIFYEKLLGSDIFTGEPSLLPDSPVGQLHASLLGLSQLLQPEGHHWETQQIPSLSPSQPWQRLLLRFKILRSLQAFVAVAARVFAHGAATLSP
recombinant human IL-23 (free state), sequence (P29460 23-328 limits assumed): as the sequence (P29460 23-328 limits assumed) above

IFN-γ signal transduction, HEK-IFN-γ [1]: 100% | IFN-γ signal transduction, HEK-IFN-γ cells, % of rIFN-γ [1]: 100% | IFN-γ signal transduction, HEK-IFN-γ-PD-1 [1]: 100% | IFN-γ signal transduction, HEK-IFN-γ-TIGIT [1]: 100% | IFN-γ signal transduction, HEK-PD-1-IFN-γ cells, % of rIFN-γ [1]: 100%
Substance: recombinant human IFN-γ (free state) (from UniProt P01579 24-166) (ligand)

IL-10 signal transduction, HEK-IL-10 cells, % of rIL-10 [2]: 100% | IL-10 signal transduction, HEK-PD-1-IL-10 cells, % of rIL-10 [2]: 100%
Substance: recombinant human IL-10 (free state) (from UniProt P22301 19-178) (ligand)

IFN-γ release, activated PBMC [3]: 2300 ng/mL | IL-12 signal transduction, HEK IL-12 [3]: 100% | IL-12 signal transduction, HEK-IL-12 [3]: 100% | IL-12 signal transduction, HEK-IL-12-PD-1 [3]: 100% | IL-12 signal transduction, HEK-IL-12-PD-1 (high) [3]: 100% | IL-12 signal transduction, HEK-IL-12-PD-1 (low) [3]: 100% | IL-12 signal transduction, HEK-IL-12-TIGIT [3]: 100% | IL-12 signal transduction, HEK-IL-12 cells, % of rIL-12 [3]: 100% | IL-12 signal transduction, HEK-PD-1-IL-12 [3]: 100% | IL-12 signal transduction, HEK-PD-1-IL-12 cells, % of rIL-12 [3]: 100%
Substance: recombinant human IL-12 (from UniProt P29459 23-219; P29460 23-328) (ligand)

IL-23 signal transduction, HEK-IL-23 cells, % of rIL-23 [4]: 100% | IL-23 signal transduction, HEK-PD-1-IL-23 cells, % of rIL-23 [4]: 100%
Substance: recombinant human IL-23 (free state) (from UniProt Q9NPF7 20-189; P29460 23-328) (ligand)
